Substitutions are numbered along the chain they refer to. Values joined by “and” are separate entries in the source; they are usually repeats but may differ in a detail not shown here. Equal values may be shown once. Read-outs that look alike come from different tables or passages of the source.
T1: recombinant WNV E ectodomain (strain New York 1999) (West Nile virus, strain New York 1999, UniProt Q9Q6P4 291-694)
T1 construct: range 291-694
T1 sequence: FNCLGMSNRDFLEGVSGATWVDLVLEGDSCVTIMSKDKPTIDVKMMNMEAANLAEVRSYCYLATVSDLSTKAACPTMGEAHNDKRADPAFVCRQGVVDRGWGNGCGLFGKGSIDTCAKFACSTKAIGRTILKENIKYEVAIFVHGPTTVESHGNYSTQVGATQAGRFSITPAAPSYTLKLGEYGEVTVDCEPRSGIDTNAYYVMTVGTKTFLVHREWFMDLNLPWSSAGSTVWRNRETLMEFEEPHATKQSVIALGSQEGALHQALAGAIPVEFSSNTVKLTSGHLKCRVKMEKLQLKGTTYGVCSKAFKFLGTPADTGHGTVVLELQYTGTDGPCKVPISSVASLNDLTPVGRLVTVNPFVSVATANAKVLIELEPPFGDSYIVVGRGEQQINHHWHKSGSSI

B1: ZV-48 monoclonal antibody (antibody, V domains shown)
VH: QVQLQQPGAELLKPGASVKLSCKASGYSFSNYWMHWVKQRPGQGPEWIGMIHPNSGNTKYNEKFKNKATLTVDKSSSMVYMQLSSLTSEDSAVFYCARLGNDMDYWGQGTSVTVSS
VL: DIVMSQSPSSLAVSVGEKITMSCKSSQSLLYSNNEKNYLAWYQQKPGQSPKLLIYWASARDSGVPDRFTGSGSGTDFTLTISSVKAEDLAVFYCQQYYSYPYTFGGGTKLEIK
notes: also called ZIKV-48
B2: ZV-54 monoclonal antibody (antibody, V domains shown)
VH: QVQLQQSGVGLARPGTSVKLSCKASGYSFTTYGISWVTQRPGQGLEWIGVIYPRSNNTYYNERFRGKATLTADKSSSSAYLELRGLTAEDSAVYFCARENYGSVYWGQGTTLTVSS
VL: DIVMTQSQKFMSTSVGDRVTITCKASQSVGTAVAWYHQKPGQSPKLLIYSASNRYTGVPDRFTGSGSGTDFTLTITYMQSEDLADYFCQQFSNYPFTFGGGTKLEIK
notes: also called ZIKV-54
B3: ZV-67 monoclonal antibody (antibody, V domains shown)
VH: B2 VH with V2A, V9T, T16A, S28T, T31S, P41A, N56G, R63K, L81M
VL: B2 VL with T20S, S28N, H37Q, T76S, Y77N, N93S, F96Y
notes: also called ZIKV-67
B4: ZV-2 monoclonal antibody (antibody, V domains shown)
VH: QVQLQESGAELMKPGASVKLSCKTSGYTFIGYWIEWLKQRPGHGLEWVGEIFPGSGRTKYNEKFKGRATFTADTSSNMAYMQLSSLTTEDSAIYYCARYYYGSYYALDYWGQGTSVTVSS
VL: DIVMTQSPSSLSVSAGEKVTLSCKSSQSLLHSGNQKNYLAWYQQKPGQAPKLLIYGASTRESGVPDRFTGSGSGTDFTLTISSVQAEDLAVYYCQNDHSYPLTFGAGTKLELK
notes: also called ZIKV-2

Assays:
ZIKV = molecular target: T2, ZIKV; test: flow cytometry, infected cells fixed and permeabilized, mAb at 10 µg/ml, Alexa Fluor 647 anti-mouse IgG
T2 construct: also called ZIKV H/PF/2013-infected Vero cells

[1] = molecular target: T1, recombinant WNV E ectodomain (strain …); test: ELISA on plate-adsorbed WNV E
DENV4 E = molecular target: T3, DENV4 E; test: direct ELISA, antigen coated at 2 µg/ml, OD 450 nm
T3 construct: also called DV4-E; recombinant DENV-4 E ectodomain

[2] = molecular target: ZIKV strain H/PF/2013 (French Polynesia, 2013), infectious virus (Zika virus, strain H/PF/2013); test: cell-based or functional assay
[3] = molecular target: T4, recombinant ZIKV DIII (domain III of the E protein, strain H/PF/2013, residues 299 to 407) (Zika virus, strain H/PF/2013, UniProt A0A024B7W1 591-694); test: BLI, equilibrium
[4] = molecular target: T4, recombinant ZIKV DIII (domain III of …); test: BLI, biotinylated mAb on streptavidin sensor, DIII in solution; KD (equilibrium)
[5] = molecular target: T5, ZIKV quad-fusion-loop variant of the E ectodomain (ZIKV E-FL) (Zika virus, strain H/PF/2013); test: direct ELISA, antigen coated at 2 µg/ml, mAb at 0.5 µg/ml, OD 450 nm
T5 construct: Variant of m8

[6] = molecular target: T6, recombinant soluble ZIKV E protein ectodomain (strain H/PF/2013) (Zika virus, strain H/PF/2013); test: as above
T6 construct: also called ZIKV E ectodomain; monomeric form of the ectodomain of E

[7] = molecular target: T4, recombinant ZIKV DIII (domain III of …); test: BLI; half-life calculated from the dissociation constant, kd kinetic
[8] = molecular target: T4, recombinant ZIKV DIII (domain III of …)
[9] = molecular target: T4, recombinant ZIKV DIII (domain III of …); remark: listed apart in the source
[10] = molecular target: T4, recombinant ZIKV DIII (domain III of …); remark: listed apart in the source
[11] = molecular target: ZIKV subviral particles (SVPs, prM-E of strain H/PF/2013) (Zika virus, strain H/PF/2013)

| Binder | binding result (ZIKV) | binding result [1] | binding result (DENV4 E) | % Neutralization (undiluted sups), focus reduction on Vero cells [2] | Kd [3] | Kd [4] | binding result [5] | binding result [6] | t1/2 [7] | Kd [8] | koff [8] | kon [8] | koff [9] | kon [9] | Kd [10] | EC50 (read off the curve) [11] |
| --- | --- | --- | --- | --- | --- | --- | --- | --- | --- | --- | --- | --- | --- | --- | --- | --- |
| B1 | binds | no binding (tested: 0.5 µg/ml) | no binding (tested: 0.5 µg/ml) | 100% | ~35 nM | 35 nM | binds | binds | 3.2 min | 26.8 nM and 35.2 nM | 0.0038 s⁻¹ | 148000 M⁻¹ s⁻¹ | – | – | – | – |
| B2 | binds | no binding (tested: 0.5 µg/ml) | no binding (tested: 0.5 µg/ml) | 100% | < 10 nM | 7.9 nM | binds | binds | 33 min | – | – | – | 0.000312 s⁻¹ | 149000 M⁻¹ s⁻¹ | – | – |
| B3 | binds | no binding (tested: 0.5 µg/ml) | no binding (tested: 0.5 µg/ml) | 100% | < 10 nM | 8.8 nM | binds | binds | 13.8 min | – | – | – | – | – | 6.77 nM and 9.89 nM | ~5 ng/mL |
| B4 | – | no binding (tested: 0.5 µg/ml) | no binding (tested: 0.5 µg/ml) | < 30% | > 250 nM | 266 nM | binds | – | 0.3 min | 121 nM and 295 nM | – | – | – | – | – | – |

From patent publication US20210332111A1 (WASHINGTON UNIVERSITY, published 2021)
